Laboratory results from patent publication US20250320312A1 (OXITOPE PHARMA B V, published 2025).

Columns and labels:
PC-BSA = experiment: ELISA (DELFIA TRF), PC-BSA coated, titrated IgG1
[1] = molecular target: T1, Peptide 4: Biotin-AGGGGSGGGGSGGGGSAAA-Tyr-acid (N-terminal biotin; C-terminal acid; no PC); experiment: scFv ELISA
T1 construct: control peptide without PC
T1 peptide: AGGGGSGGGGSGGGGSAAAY
Outline: (§1)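 Bound scFv was read as OD450 after HRP–anti-V5 detection, TMB development and HCl stop. PPE with BSA was incubated 1 h at RT on BSA-blocked wells coated overnight at 4° C. with peptide, or on streptavidin wells loaded 1 h with biotinylated PC-peptides at 1 μg/mL.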

[2] = molecular target: T2, Peptide 8: Biotin-AEAAAKEAAAKEAAAKEAAAKAAA-Tyr-acid (N-terminal biotin; C-terminal acid; no PC); experiment: scFv ELISA
T2 construct: control peptide without PC
T2 peptide: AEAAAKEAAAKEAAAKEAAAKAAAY
Outline: as §1

[3] = molecular target: Peptide 1: Biotin-…-[Tyr(PC)]-acid; experiment: scFv ELISA
[4] = molecular target: Peptide 5: Biotin-…-[Tyr(PC)]-acid; experiment: scFv ELISA
BSA = BSA (UniProt P02769); experiment: scFv ELISA
BSA, sequence (P02769 25-607 limits assumed): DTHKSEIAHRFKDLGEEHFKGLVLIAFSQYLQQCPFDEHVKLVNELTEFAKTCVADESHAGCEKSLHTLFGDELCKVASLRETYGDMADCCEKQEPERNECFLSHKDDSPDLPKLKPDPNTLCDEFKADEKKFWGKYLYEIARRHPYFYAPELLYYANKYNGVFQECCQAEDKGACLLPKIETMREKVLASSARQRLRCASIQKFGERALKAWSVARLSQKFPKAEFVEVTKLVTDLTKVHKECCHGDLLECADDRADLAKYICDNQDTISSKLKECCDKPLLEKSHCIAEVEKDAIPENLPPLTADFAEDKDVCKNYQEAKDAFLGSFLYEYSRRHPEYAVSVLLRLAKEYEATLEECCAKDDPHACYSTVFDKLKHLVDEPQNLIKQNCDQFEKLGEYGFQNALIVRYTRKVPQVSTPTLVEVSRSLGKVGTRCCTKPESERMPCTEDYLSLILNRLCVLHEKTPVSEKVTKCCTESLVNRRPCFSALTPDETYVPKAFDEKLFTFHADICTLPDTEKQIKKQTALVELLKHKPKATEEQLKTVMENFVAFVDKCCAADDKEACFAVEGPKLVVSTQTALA

PC-BSA, sequence (P02769 25-607 limits assumed, form in doubt): as the sequence (P02769 25-607 limits assumed) above

Molecule	EC50 (PC-BSA) [nM]	OD450 [1] [OD450]	OD450 [2] [OD450]	OD450 [3] [OD450]	OD450 [4] [OD450]	OD450 (BSA) [OD450]
E06 parental IgG1 (antibody)	0.39	–	–	–	–	–
PcOxP_DB01_G05 (human IgG1) (antibody, V domains shown) VH: EVQLLESGGGLVQPGGSLRLSCAASGFTFSSYYMEWVRQAPGKGLEWVAASRNKANEYTTEYADSVKGRFTISRDNSKNTLYLQMNSLRAEDTAVYYCARDYYGSSYWYFDVWGQGTLVTVSS VL: DIVMTQSPDSLAVSLGERATINCTASESLYSSKHKVHYLAWYQQKPGQPPKLLIYGASNRYIGVPDRFSGSGSGTDFTLTISSLQAEDVAVYYCANFYSYPLTFGGGTKVEIK	0.263	–	–	–	–	–
PcOxP_DB01_H01 (human IgG1) (antibody, V domains shown) VH: EVQLLESGGGLVQPGGSLRLSCAASGFTFSSYYMEWVRQAPGKGLEWVAASRNKANLYTTEYADSVKGRFTISRDNSKNTLYLQMNSLRAEDTAVYYCARDYYGSSTWYFDVWGQGTLVTVSS VL: DIVMTQSPDSLAVSLGERATINCTASESLYSSKHKVHYLAWYQQKPGQPPKLLIYGASNRYIGVPDRFSGSGSGTDFTLTISSLQAEDVAVYYCAQFYSYPLTFGGGTKVEIK	0.275	–	–	–	–	–
PcOxP_DB01_G09 (human IgG1) (antibody, V domains shown) VH: EVQLLESGGGLVQPGGSLRLSCAASGFTFSDYYMEWVRQAPGKGLEWVAASRNKANTYTTEYADSVKGRFTISRDNSKNTLYLQMNSLRAEDTAVYYCARDYYGSSYWYFDVWGQGTLVTVSS VL: DIQMTQSPSSLSASVGDRVTITCTASESLYSSKHKVHYLAWYQQKPGKAPKLLIYGASNLYSGVPSRFSGSGSGTDFTLTISSLQPEDFATYYCAQFYSYPLTFGGGTKVEIK	0.308	–	–	–	–	–
PcOxP_DB02_E11 (scFv, V domains shown, scFv in periplasmic extract) VH: EVQLLESGGGLVQPGGSLRLSCAASGFTFSDQYMEWVRQAPGKGLEWVAASRNKANDYTVEYADSVKGRFTISRDNSKNTLYLQMNSLRAEDTAVYYCARDYYGSSYWYFDVWGQGTLVTVSS VL: DIVMTQSPDSLAVSLGERATINCKSSESLLYSKNNKNYLAWYQQKPGQPPKLLIYGASNRYSGVPDRFSGSGSGTDFTLTISSLQAEDVAVYYCAQFYSYPLTFGGGTKVEIK	–	0.04	0.04	0.23	0.76	0.06
PcOxP_DB02_E03 (scFv, V domains shown, scFv in periplasmic extract) VH: EVQLLESGGGLVQPGGSLRLSCAASGFTFSDYYMEWVRQAPGKGLEWVAASRWKANDYTTEYADSVKGRFTISRDNSKNTLYLQMNSLRAEDTAVYYCARDYYGSSQWYFDVWGQGTLVTVSS VL: DIVMTQSPDSLAVSLGERATINCTASESLYSSKHKKNYLAWYQQKPGQPPKLLIYGASWRYIGVPDRFSGSGSGTDFTLTISSLQAEDVAVYYCAQFYSYPLTFGGGTKVEIK	–	0.04	0.05	0.39	0.75	0.08
PcOxP_DB02_E09 (scFv, V domains shown, scFv in periplasmic extract) VH: EVQLLESGGGLVQPGGSLRLSCAASGFTFSDYYMEWVRQAPGKGLEWVAASRWKANDYTTEYADSVKGRFTISRDNSKNTLYLQMNSLRAEDTAVYYCARDYYGSSYWYFDVWGQGTLVTVSS VL: DIVMTQSPDSLAVSLGERATINCTASESLYSSKHKVHYLAWYQQKPGQPPKLLIYGASTRYSGVPDRFSGSGSGTDFTLTISSLQAEDVAVYYCAQFYTYPLTFGGGTKVEIK	–	0.04	0.04	0.56	0.74	0.07
PcOxP_DB02_E08 (scFv, V domains shown, scFv in periplasmic extract) VH: EVQLLESGGGLVQPGGSLRLSCAASGFTFSDDYMEWVRQAPGKGLEWVAATRNKANDYTTEYADSVKGRFTISRDNSKNTLYLQMNSLRAEDTAVYYCARDYYGSSYWYFDSWGQGTLVTVSS VL: DIVMTQSPDSLAVSLGERATINCTASESLYSSKHKVHYLAWYQQKPGQPPKLLIYGASNRYIGVPDRFSGSGSGTDFTLTISSLQAEDVAVYYCAQFYSYPLTFGGGTKVEIK	–	0.04	0.04	0.24	0.49	0.07
